This note sets out measurements from article PMC3668167, “Ski-interacting protein (SKIP) interacts with androgen receptor in the nucleus and modulates androgen-dependent transcription” (BMC Biochemistry, 2013).

Assay [1] has as its target T1, GAL4 DNA binding domain fusion of AR-LBD residues 642-917 (pM-GAL4DBD-AR642-917) (human, UniProt P10275 642-917).
T1 sequence (looked up): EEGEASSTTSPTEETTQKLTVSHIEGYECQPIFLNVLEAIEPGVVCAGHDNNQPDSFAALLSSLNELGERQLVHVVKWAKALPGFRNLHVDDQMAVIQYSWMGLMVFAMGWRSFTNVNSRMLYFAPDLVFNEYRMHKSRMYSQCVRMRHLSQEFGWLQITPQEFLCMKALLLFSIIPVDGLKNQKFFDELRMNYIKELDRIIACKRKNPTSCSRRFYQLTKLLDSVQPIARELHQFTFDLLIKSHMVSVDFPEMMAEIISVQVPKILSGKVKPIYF
As to the kind of experiment: cell-based or functional assay.

Assay [2] has as its target T2, GAL4 DNA binding domain fusion of the AR AF-1 fragment, residues 1-555 (pM-GAL4DBD-AR-AF1) (human, UniProt P10275 1-555).
T2 sequence (looked up): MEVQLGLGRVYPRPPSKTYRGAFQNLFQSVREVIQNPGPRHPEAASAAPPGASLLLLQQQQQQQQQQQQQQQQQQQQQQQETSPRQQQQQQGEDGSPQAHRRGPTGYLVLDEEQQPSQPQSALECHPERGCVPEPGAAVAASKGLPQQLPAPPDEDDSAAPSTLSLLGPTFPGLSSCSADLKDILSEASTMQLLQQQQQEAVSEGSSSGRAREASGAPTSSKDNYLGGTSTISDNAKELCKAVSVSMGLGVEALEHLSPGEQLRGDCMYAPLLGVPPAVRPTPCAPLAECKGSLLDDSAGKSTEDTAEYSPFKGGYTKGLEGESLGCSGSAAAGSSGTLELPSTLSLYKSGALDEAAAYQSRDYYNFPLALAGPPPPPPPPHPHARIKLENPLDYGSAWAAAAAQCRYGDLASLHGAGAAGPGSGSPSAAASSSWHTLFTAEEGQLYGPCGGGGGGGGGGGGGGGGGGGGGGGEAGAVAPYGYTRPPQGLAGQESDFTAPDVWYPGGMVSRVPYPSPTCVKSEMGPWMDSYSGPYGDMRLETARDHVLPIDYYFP
Put plainly: cell-based or functional assay.

In assay [3] the target is T1, GAL4 DNA binding domain fusion of …. Put plainly: two-hybrid; mammalian two-hybrid in HEK293 cells, GAL4(5)E1bTATA-luciferase reporter, GAL4DBD-AR642-917 with pVP16-AR1-538, empty pCGN (no SKIP), 1 nM DHT; activity relative to empty vectors without DHT. Particulars: partners not purified. On the technique in general: A reporter such as luciferase makes a cellular process visible.

Assay [4] shares this target. As to the kind of experiment: two-hybrid; mammalian two-hybrid in HEK293 cells, GAL4(5)E1bTATA-luciferase reporter, GAL4DBD-AR642-917 with pVP16-AR1-538, SKIP-pCGN co-expressed, 1 nM DHT; activity relative to empty vectors without DHT. Particulars: partners not purified.

B1: HA-tagged Ski-interacting protein (SKIP-pCGN) (natural protein, human, UniProt Q13573 1-536, looked up)
chain: MALTSFLPAPTQLSQDQLEAEEKARSQRSRQTSLVSSRREPPPYGYRKGWIPRLLEDFGDGGAFPEIHVAQYPLDMGRKKKMSNALAIQVDSEGKIKYDAIARQGQSKDKVIYSKYTDLVPKEVMNADDPDLQRPDEEAIKEITEKTRVALEKSVSQKVAAAMPVRAADKLAPAQYIRYTPSQQGVAFNSGAKQRVIRMVEMQKDPMEPPRFKINKKIPRGPPSPPAPVMHSPSRKMTVKEQQEWKIPPCISNWKNAKGYTIPLDKRLAADGRGLQTVHINENFAKLAEALYIADRKAREAVEMRAQVERKMAQKEKEKHEEKLREMAQKARERRAGIKTHVEKEDGEARERDEIRHDRRKERQHDRNLSRAAPDKRSKLQRNENRDISEVIALGVPNPRTSNEVQYDQRLFNQSKGMDSGFAGGEDEIYNVYDQAWRGGKDMAQSIYRPSKNLDKDMYGDDLEARIKTNRFVPDKEFSGSDRRQRGREGPVQFEEDPFGLDKFLEEAKQHGGSKRPSDSSRPKEHEHEGKKRRKE
Regarding B1, the “GAL4 luciferase reporter in HEK293 cells: ligand-dependent (1 nM DHT) activation of the AR-LBD 642-917 construct with overexpressed SKIP (Figure 2 column 7)” value in assay [1] came to 9 fold. In assay [2], the “mammalian one-hybrid luciferase reporter in HEK293 cells: AR-AF-1 (GAL4DBD-AR1-555) ligand-independent transcriptional activity with overexpressed SKIP against without SKIP” value was roughly 5 fold.

B2: VP16 activation domain fusion of AR residues 1-538 (pVP16-AR1-538) (domain or fragment, human, UniProt P10275 1-538, looked up)
chain: MEVQLGLGRVYPRPPSKTYRGAFQNLFQSVREVIQNPGPRHPEAASAAPPGASLLLLQQQQQQQQQQQQQQQQQQQQQQQETSPRQQQQQQGEDGSPQAHRRGPTGYLVLDEEQQPSQPQSALECHPERGCVPEPGAAVAASKGLPQQLPAPPDEDDSAAPSTLSLLGPTFPGLSSCSADLKDILSEASTMQLLQQQQQEAVSEGSSSGRAREASGAPTSSKDNYLGGTSTISDNAKELCKAVSVSMGLGVEALEHLSPGEQLRGDCMYAPLLGVPPAVRPTPCAPLAECKGSLLDDSAGKSTEDTAEYSPFKGGYTKGLEGESLGCSGSAAAGSSGTLELPSTLSLYKSGALDEAAAYQSRDYYNFPLALAGPPPPPPPPHPHARIKLENPLDYGSAWAAAAAQCRYGDLASLHGAGAAGPGSGSPSAAASSSWHTLFTAEEGQLYGPCGGGGGGGGGGGGGGGGGGGGGGGEAGAVAPYGYTRPPQGLAGQESDFTAPDVWYPGGMVSRVPYPSPTCVKSEMGPWMDSYSGPYGDM
notes: androgen receptor, human, N-terminal residues 1-538; also called AR N-terminus; source: HEK293, transfected, mammalian two-hybrid fusion
For the molecule B2, the “relative luciferase activity, fold over control” value in assay [3] was found to be 12 fold. Moreover, in assay [4], the “relative luciferase activity, fold over control (SKIP co-expressed)” value was roughly 300 fold.
